Test results published in patent US20250145701A1 (REMEGEN SHANGHAI, published 2025).

Tests used:
[1] = biological target: VEGF (species and construct not stated); assay: cell-based or functional assay
[2] = biological target: T1, human PD-1 (ACRO, His tag) (human, UniProt Q15116 25-167); assay: ELISA, human PD-1-His coated at 1 ug/mL, anti-human IgG Fc detection, OD450
T1 construct: Bought protein; not shown: His tag
Description: The binding of the antibody to human PD-1 was detected by ELISA. 1 μg/mL human PD-1 (ACRO, His tag) was coated on an ELISA plate overnight and blocked. Subsequently, the plate was added with gradient dilutions of the bispecific antibody and the control antibody, incubated and washed. Then, the plate was added with HRP-labeled anti-human IgG Fc secondary antibody, incubated and washed. After TMB solution was added for color development, the OD450 absorbance value was read on a microplate reader (see Table 12). […] Subsequently, the plate was added with gradient dilutions of the sample to be tested and the control antibody, incubated and washed. Then, the plated was added with HRP-labeled anti-human IgG Fc secondary antibody, incubated and washed. After TMB solution was added for color development, the OD450 absorbance value was read on a microplate reader (see Table 13). […] (The control substances were all obtained by in-house expression and purification)

[3] = biological target: T2, human VEGF (ACRO, His tag) (human, UniProt P15692-4 27-191, limits assumed); assay: ELISA, human VEGF-His coated at 50 ng/ml, anti-human IgG Fc detection, OD450
T2 construct: Bought protein; not shown: His tag

[4] = biological target: T3, monkey PD-1 (ACRO, His tag) (monkey, UniProt B0LAJ3 25-170); assay: ELISA, monkey PD-1-His coated at 1 ug/mL, anti-human IgG Fc detection, OD450
T3 construct: Bought protein
Description: The binding of candidate molecules and competitor to antigens of different species was detected by ELISA. […] The binding of antibodies to monkey PD-1 was detected by ELISA. An ELISA plate was coated with 1 μg/mL monkey PD-1 (ACRO, His tag) overnight and blocked. Subsequently, the plate was added with gradient dilutions of the sample to be tested and the control antibody, incubated and washed. Then, the plate was added with HRP-labeled anti-human IgG Fc secondary antibody, incubated and washed. After TMB solution was added for color development, the OD450 absorbance value was read on a microplate reader (see Table 15).

[5] = biological target: T1, human PD-1 (ACRO, His tag); assay: bridging ELISA: human PD-1-His coated at 1 ug/mL, antibody, then biotinylated human VEGF at 50 ng/ml and streptavidin-HRP, OD450
Description: The order of the binding to VEGF and PD-1 was changed for dual ELISA detection. A 96-well ELISA plate was coated with 1 μg/mL human PD-1 (ACRO, His tag) overnight, washed and blocked for 1 hour. […] TMB solution was added for color development, and the OD450 nm absorbance value was read on a microplate reader.

T2 sequence (P15692 other isoform, or with tags, fused parts or gaps limits assumed): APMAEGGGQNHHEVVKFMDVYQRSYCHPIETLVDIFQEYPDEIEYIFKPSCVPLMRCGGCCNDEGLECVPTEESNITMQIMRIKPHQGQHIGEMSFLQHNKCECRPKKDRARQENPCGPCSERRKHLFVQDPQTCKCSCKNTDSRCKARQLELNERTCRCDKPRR
T1 sequence (Q15116 25-167 limits assumed): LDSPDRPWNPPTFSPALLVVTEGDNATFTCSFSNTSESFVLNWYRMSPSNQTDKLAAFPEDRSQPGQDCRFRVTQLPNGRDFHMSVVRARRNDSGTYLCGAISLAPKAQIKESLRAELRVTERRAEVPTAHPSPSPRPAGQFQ
Chain of VEGF (species and construct not stated) (P15692 whole entry): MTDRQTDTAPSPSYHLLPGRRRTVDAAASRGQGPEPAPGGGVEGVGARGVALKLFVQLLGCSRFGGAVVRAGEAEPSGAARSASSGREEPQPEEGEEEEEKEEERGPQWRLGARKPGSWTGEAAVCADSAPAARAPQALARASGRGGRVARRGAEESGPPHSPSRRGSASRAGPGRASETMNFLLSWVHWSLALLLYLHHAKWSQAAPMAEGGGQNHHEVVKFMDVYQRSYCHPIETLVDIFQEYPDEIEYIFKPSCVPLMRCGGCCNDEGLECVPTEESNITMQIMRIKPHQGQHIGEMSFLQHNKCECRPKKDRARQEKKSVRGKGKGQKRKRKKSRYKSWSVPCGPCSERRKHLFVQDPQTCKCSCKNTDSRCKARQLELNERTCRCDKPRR
T3 sequence (B0LAJ3 entry or part of it limits assumed, form in doubt): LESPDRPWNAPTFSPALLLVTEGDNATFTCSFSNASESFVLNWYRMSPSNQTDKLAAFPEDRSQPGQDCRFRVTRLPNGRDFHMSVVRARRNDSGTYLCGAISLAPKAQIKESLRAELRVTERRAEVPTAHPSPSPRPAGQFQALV

maximum inhibition rate of HUVEC proliferation [1] [%] | TOP OD [2] [OD] | TOP OD [3] [OD] | TOP OD [4] [OD] | TOP OD [5] [OD] | Binder
~60 | 2.58 | 1.75 | 3.38 | 3.65 | #16 bispecific antibody targeting PD-1 and VEGF (bispecific antibody, human IgG1, kappa, Valence is 2+2) heavy: QVQLVQSGVEVKKPGASVKVSCKASGYTFTNYYMYWVRQAPGQGLEWMGGINPSNGGTNFNEKFKNRVTLTTDSSTTTAYMELKSLQFDDTAVYYCARRDYRFDMGFDYWGQGTTVTVSSASTKGPSVFPLAPSSKSTSGGTAALGCLVKDYFPEPVTVSWNSGALTSGVHTFPAVLQSSGLYSLSSVVTVPSSSLGTQTYICNVNHKPSNTKVDKKVEPKSCDKTHTCPPCPAPEAEGAPSVFLFPPKPKDTLMISRTPEVTCVVVDVSHEDPEVKFNWYVDGVEVHNAKTKPREEQYNSTYRVVSVLTVLHQDWLNGKEYKCKVSNKALPSSIEKTISKAKGQPREPQVYTLPPSREEMTKNQVSLTCLVKGFYPSDIAVEWESNGQPENNYKTTPPVLDSDGSFFLYSKLTVDKSRWQQGNVFSCSVMHEALHNHYTQKSLSLSPGEVQLLESGGGLVQPGGSLRLSCAASGFTFSTSTMSWYRQAPGKERELVSFITSAGATTYYADSVKGRFTMSRDNSKNTVYLQMNSLRAEDTAVYYCRALVTLWNVYWGQGTLVTVSS light: EIVLTQSPATLSLSPGERATLSCRASKGVSTSGYSYLHWYQQKPGQAPRLLIYLASYLESGVPARFSGSGSGTDFTLTISSLEPEDFAVYYCQHSRDLPLTFGGGTKVEIKRTVAAPSVFIFPPSDEQLKSGTASVVCLLNNFYPREAKVQWKVDNALQSGNSQESVTEQDSKDSTYSLSSTLTLSKADYEKHKVYACEVTHQGLSSPVTKSFNRGEC
 |  | 3.09 |  |  | Strain #48 VHH (Fc fusion, Humanized variant of #6 (Q1E+Q5L+A49S+N58Y+D65G+D74S+V(82B)S+K83R+P84A+M89V+Q108L, Kabat); not shown: A printed molecular weight of 76.46 kD and detection by anti-human IgG Fc p) EVQLLESGGGLVQPGGSLRLSCAASGFTFSTSTMSWYRQAPGKERELVSFITSAGATTYYADSVKGRFTMSRDNSKNTVYLQMNSLRAEDTAVYYCRALVTLWNVYWGQGTLVTVSS
